As a reminder, the EC50 is the concentration giving half of the maximal effect. A higher EC50 goes with lower potency in that assay. Broadly, the Kd is the concentration at which binding is half-saturated. High values mean lower affinity, low ones higher affinity. Broadly, the koff is the rate constant with which the complex falls apart. A lower koff goes with a long-lived complex. For orientation: kon means a measure of how fast the partners come together. A low value points to slow association. What is called IC50 is the concentration that gives 50% inhibition. Higher therefore signals lower potency.

This is an account of results in patent KR20220012314A (dated 2022).

Assay [1] deals with T1, 인간 골수종 세포주 U266 표면의 인간 BCMA (human, UniProt Q02223 1-184).
T1 construct: whole, on cells; also called U266 세포; FACS 세포 결합
T1 sequence (looked up): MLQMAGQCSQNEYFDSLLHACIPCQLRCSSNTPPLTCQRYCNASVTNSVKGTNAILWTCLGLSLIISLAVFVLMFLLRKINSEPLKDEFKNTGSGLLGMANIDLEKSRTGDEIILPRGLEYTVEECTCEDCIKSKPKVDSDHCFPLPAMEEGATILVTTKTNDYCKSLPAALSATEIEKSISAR
Kind of assay: flow cytometry on U266 cells. Background: A flow cytometer gives signals particle by particle.

In assay [2] the target is T2, 재조합 인간 BCMA-his 단백질 (Cat#BCA-H522Y, 아크로 바이오시스템즈) (human, UniProt Q02223 1-54, biotin-labelled in the capture ELISA and the benchmark-blocking ELISA).
T2 construct: Bought protein, MW 7.8 kDa as printed; not shown: his tag
T2 sequence: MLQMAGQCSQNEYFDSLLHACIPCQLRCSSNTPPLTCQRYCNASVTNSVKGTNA
Briefly: SPR (Biacore T200), antibody captured on chip, human BCMA-his in flow, 1:1 Langmuir fit. For orientation: Surface plasmon resonance follows binding to a sensor surface in real time, without labels.

Assay [3] concerns the target T3, 사이노몰거스 원숭이 BCMA-Fc 단백질 (아크로 바이오시스템즈, Cat#BCA-C5253) (cynomolgus monkey, UniProt A0A2K5UD97 1-53).
T3 construct: also called 사이노몰거스 BCMA-Fc; 사이노몰거스 BCMA; not shown: Fc tag
Kind of assay: SPR (Biacore T200), antibody captured on chip, cynomolgus BCMA-Fc in flow, 1:1 Langmuir fit.

Assay [4] deals with T2, 재조합 인간 BCMA-his 단백질 (Cat#BCA-H522Y, 아크로 …). Kind of assay: capture ELISA: antibody captured on plate, biotin-labelled human BCMA-his 0.28 nM in solution. In general terms: An ELISA detects its analyte on a solid surface through an enzyme-linked reagent.
Assay [5] has the same target. Briefly: competition ELISA: BCMA-his coated, antibody titrated, then biotin-labelled human BAFF-Fc 0.25 nM; competitor BAFF-Fc.
Assay [6] has the same target. Kind of assay: competition ELISA: BM coated, antibody titrated and premixed with biotin-labelled human BCMA-his 0.22 nM; competitor BM.
For assay [7] the target is unchanged. Kind of assay: SPR (Biacore), human BCMA.
Assay [8] has as its target T3, 사이노몰거스 원숭이 BCMA-Fc 단백질 (아크로 바이오시스템즈, …). Briefly: SPR (Biacore), cynomolgus BCMA.
The target of assay [9] is T2, 재조합 인간 BCMA-his 단백질 (Cat#BCA-H522Y, 아크로 …). Kind of assay: capture ELISA with biotin-labelled human BCMA-his.
Assay [10] shares this target. Briefly: competition ELISA: BCMA-his coated, antibody titrated, then biotin-labelled human BAFF-Fc; competitor BAFF-Fc.
For assay [11] the target is unchanged. Briefly: competition ELISA: BM coated, antibody titrated and premixed with biotin-labelled human BCMA-his; competitor BM (self).
The target is the same in assay [12]. Briefly: competition ELISA: BM coated, antibody titrated and premixed with biotin-labelled human BCMA-his 0.22 nM; competitor BM (self).

“And” between values parts separate entries of the source, which are not always exact repeats. Identical values can stand only once.

T3 sequence (A0A2K5UD97 entry or part of it): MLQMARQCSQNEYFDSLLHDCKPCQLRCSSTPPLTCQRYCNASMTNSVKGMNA

B1: 마우스 항-BCMA 단일클론 항체 B1A1 (antibody, V domains shown)
VH: DVQLQESGPGLVKPSQSLSLTCSVTGYSITSAYYWNWIRQFPGNKLEWMGYIRYDGSNNYNPSLKNRISITRDTSKNQFFLKLNSVTAEDTATYYCAPYDYDEVFAYWGQGTLVTVSA
VL: DIVMTQSHKFMSTSVGDRVSITCKASQEVSTAVAWYQQKPGQSPKLLIYWASMRHTGVPDRFTGSGSGTDYTLIITSVQAEDLALYYCQQYYSTPLTFGAGTKLELK
Consider B1, for which the values for the EC50 in [1] and in [4] were 2.66 nM and 1.06 nM, respectively. The figures for the Kd in assay [2] and in [3] were 0.636 nM and 9.08 nM, respectively. In addition, the dissociation rate constant (koff) amounted to 0.00161 s⁻¹ in assay [2] and 0.0148 s⁻¹ in assay [3]. Further, the values for the kon in assay [2] and in [3] were 2.45e+06 M⁻¹ s⁻¹ and 1.63e+06 M⁻¹ s⁻¹, respectively. Also, the IC50 was determined as 7 nM in assay [5] and 1.91 nM in assay [6].

B2: BCMA 벤치마크 (GSK2857916의 BCMA-결합 부분을 함유하는 항체) (antibody, human IgG1, kappa, V domains shown)
VH: QVQLVQSGAEVKKPGSSVKVSCKASGGTFSNYWMHWVRQAPGQGLEWMGATYRGHSDTYYNQKFKGRVTITADKSTSTAYMELSSLRSEDTAVYYCARGAIYDGYDVLDNWGQGTLVTVSS
VL: DIQMTQSPSSLSASVGDRVTITCSASQDISNYLNWYQQKPGKAPKLLIYYTSNLHSGVPSRFSGSGSGTDFTLTISSLQPEDFATYYCQQYRKLPWTFGQGTKLEIKR
notes: also called BM; BCMA-mab1
For B2, the figures for the Kd in assay [7], in assay [8] and in [2] were 0.742 nM, 0.599 nM and 0.742 nM, respectively. For the same molecule, the EC50 in assay [9] is 0.71 nM and 0.93 nM; in assay [4], 1.27 nM and 1.11 nM. Moreover, the koff in [2] turned out to be 0.000245 s⁻¹. This molecule registered a kon in [2] of 330000 M⁻¹ s⁻¹. In addition, the half-inhibitory concentration (IC50) in assay [10] is 3.64 nM and 3.59 nM; in [5] it was 9.61 nM and 10.7 nM; in assay [11] it was 2.23 nM and 1.64 nM; in [12], 1.93 nM and 2.64 nM.
